* marks the point of attachment. FITC = O=C1OC2(c3ccc(O)cc3Oc3cc(O)ccc32)c2ccc(NC(=S)*)cc21; βAla = NCCC(=O)O
Target: doubly-mutant HR1 peptides
Test: native PAGE complex assembly assay, densitometry of fluorescence scans

B1: FITC-SAH-gp41(626-662)(A, F) (peptide)
peptide: {FITC-βAla}-LTWAEWDAEINNYTSLIHSLIEESQNQAEKNAQELLE-NH2
modifications: staple (positions not given here); also: two hydrocarbon staples from S5 residues, positions not given here
For B1, the fold enhancement in binding activity compared to FITC-T649v was less than 2 fold.

From patent US20120141527A1
